This note sets out measurements from paper PMC11066036.

The chains are these.
B1: HPK1 kinase domain (KD TSEE WT) [not stated] / HPK1 intact citron homology domain fragment (C428-E821), untagged [not stated] (parent)
chain 1: CASGPPPNSPRPGPPPSTSSPHLTAHSEPSLWNPPSRELDKPPLLPPKKEKMKRKGCALLVKLFNGCPLRIHSTAAWTHPSTKDQHLLLGAEEGIFILNRNDQEATLEMLFPSRTTWVYSINNVLMSLSGKTPHLYSHSILGLLERKETRAGNPIAHISPHRLLARKNMVSTKIQDTKGCRACCVAEGASSGGPFLCGALETSVVLLQWYQPMNKFLLVRQVLFPLPTPLSVFALLTGPGSELPAVCIGVSPGRPGKSVLFHTVRFGALSCWLGEMSTEHRGPVQVTQVEEDMVMVLMDGSVKLVTPEGSPVRGLRTPEIPMTEAVEAVAMVGGQLQAFWKHGVQVWALGSDQLLQELRDPTLTFRLLGSPRPVVVETRPVDDPTAPSNLYIQE
chain 2: DVVDPDIFNRDPRDHYDLLQRLGGGTYGEVFKARDKVSGDLVALKMVKMEPDDDVSTLQKEILILKTCRHANIVAYHGSYLWLQKLWICMEFCGAGSLQDIYQVTGSLSELQISYVCREVLQGLAYLHSQKKIHRDIKGANILINDAGEVRLADFGISAQIGAELARRLEFIGTPYWMAPEVAAVALKGGYNELCDIWSLGITAIELAELQPPLFDVHPLRVLFLMTKSGYQPPRLKEKGKWSAAFHNFIKVTLTKSPKKRPSATKMLSHQLVSQPGLNRGLILDLLDKLKN

In this assay the parent is B1. The assay can be described thus: SPR. Conditions: with HPK1 intact citron homology domain fragment (C428-E821), left plot, plateau of the last (highest) of five successive CHD injections, about 800-900 s, CHD concentrations not given, parent: 30, read off a plot.
As for chain 2 L220K, the response (Response Units) worked out at 43.
